Laboratory results from patent publication US20240182536A1 (MURAL ONCOLOGY, published 2024).
Residue numbers refer to the chain shown, from its start. In names and notes the source's numbering stands.

T1: IL-18 receptors on HEK-Blue IL-18 reporter cells (UniProt Q13478 19-541; O95256 20-599, limits assumed)
T1 sequence (looked up) 1: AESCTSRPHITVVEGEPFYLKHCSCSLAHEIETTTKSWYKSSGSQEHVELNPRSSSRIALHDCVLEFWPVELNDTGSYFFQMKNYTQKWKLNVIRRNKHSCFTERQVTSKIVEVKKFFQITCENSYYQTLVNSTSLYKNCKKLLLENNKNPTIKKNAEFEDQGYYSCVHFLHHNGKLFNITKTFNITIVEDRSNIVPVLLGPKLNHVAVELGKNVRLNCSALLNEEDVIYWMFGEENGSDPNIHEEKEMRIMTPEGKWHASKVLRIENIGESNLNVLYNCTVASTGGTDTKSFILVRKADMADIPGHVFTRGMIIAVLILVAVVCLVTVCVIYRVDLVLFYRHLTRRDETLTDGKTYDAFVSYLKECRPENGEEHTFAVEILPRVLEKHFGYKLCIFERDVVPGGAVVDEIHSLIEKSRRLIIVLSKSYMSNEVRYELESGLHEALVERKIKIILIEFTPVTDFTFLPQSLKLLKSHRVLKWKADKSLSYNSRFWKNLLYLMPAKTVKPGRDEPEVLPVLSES
T1 sequence (looked up) 2: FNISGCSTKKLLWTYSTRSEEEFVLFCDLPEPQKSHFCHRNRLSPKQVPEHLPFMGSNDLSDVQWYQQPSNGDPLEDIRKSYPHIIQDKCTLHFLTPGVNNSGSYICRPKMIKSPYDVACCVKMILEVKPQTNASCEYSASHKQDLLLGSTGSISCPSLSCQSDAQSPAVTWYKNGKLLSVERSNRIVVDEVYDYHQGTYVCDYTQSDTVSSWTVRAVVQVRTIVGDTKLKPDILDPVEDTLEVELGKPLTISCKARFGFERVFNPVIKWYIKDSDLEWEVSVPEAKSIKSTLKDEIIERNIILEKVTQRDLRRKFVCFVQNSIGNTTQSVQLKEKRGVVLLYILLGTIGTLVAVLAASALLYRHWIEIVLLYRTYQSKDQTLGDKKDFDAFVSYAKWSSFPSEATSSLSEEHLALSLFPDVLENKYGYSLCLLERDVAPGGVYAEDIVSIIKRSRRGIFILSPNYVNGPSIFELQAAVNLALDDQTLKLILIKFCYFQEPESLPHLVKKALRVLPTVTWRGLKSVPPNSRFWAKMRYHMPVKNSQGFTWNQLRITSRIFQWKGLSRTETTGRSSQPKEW

T2: IL-18 binding protein (IL-18BP) (UniProt O95998 31-194)
T2 sequence (looked up): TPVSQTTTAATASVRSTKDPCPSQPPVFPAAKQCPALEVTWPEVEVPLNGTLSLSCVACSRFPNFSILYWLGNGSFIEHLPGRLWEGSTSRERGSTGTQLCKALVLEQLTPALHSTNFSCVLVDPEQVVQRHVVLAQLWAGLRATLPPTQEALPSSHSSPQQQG

B1: IL-18 variant G3P, E6R, D54W, S55Q, T63S, N91T, R104H (ligand)
chain: YFPKLRSKLSVIRNLNDQVLFIDQGNRPLFEDMTDSDMRDNAPRTIFIISMYKWQQPRGMAVSISVKSEKISTLSSENKIISFKEMNPPDTIKDTKSDIIFFQHSVPGHDNKMQFESSSYEGYFLASEKERDLFKLILKKEDELGDRSIMFTVQNED
B2: IL-18 variant G3P, E6V, K53A, D54W, S55P, T63S, N91L, R104K, Q154R (ligand)
chain: B1 chain with R6V, K53A, Q55P, T91L, H104K, Q154R
B3: IL-18 variant G3Q, E6K, D54S, S55P, T63S, N91S, R104Q (ligand)
chain: B1 chain with P3Q, R6K, W54S, Q55P, T91S, H104Q
B4: IL-18 variant G3Y, E6S, K53S, D54W, S55L, N91I (ligand)
chain: B1 chain with P3Y, R6S, K53S, Q55L, S63T, T91I, H104R
B5: IL-18 variant G3Y, E6S, K53S, D54W, S55L, T63S, N91I (ligand)
chain: B1 chain with P3Y, R6S, K53S, Q55L, T91I, H104R
B6: IL-18 variant G3Q, E6N, D54Y, S55P, T63S, N91S, R104H (ligand)
chain: B1 chain with P3Q, R6N, W54Y, Q55P, T91S
B7: IL-18 variant G3Q, E6S, S55V, T63A, N91T (ligand)
chain: B1 chain with P3Q, R6S, W54D, Q55V, S63A, H104R
B8: IL-18 variant G3Q, E6H, D54N, S55I, T63S, N91V (ligand)
chain: B1 chain with P3Q, R6H, W54N, Q55I, T91V, H104R
B9: IL-18 variant G3S, E6G, D54V, S55K, T63S, N91Y, R104T (ligand)
chain: B1 chain with P3S, R6G, W54V, Q55K, T91Y, H104T
B10: IL-18 variant G3I, E6D, D54A, S55F, N91Y, R104H (ligand)
chain: B1 chain with P3I, R6D, W54A, Q55F, S63T, T91Y
B11: IL-18 variant G3N, E6S, K53Q, D54W, S55R, N91T, R104T (ligand)
chain: B1 chain with P3N, R6S, K53Q, Q55R, S63T, H104T
B12: IL-18 variant G3L, E6Q, T63S, N91L, R104T (ligand)
chain: B1 chain with P3L, R6Q, W54D, Q55S, T91L, H104T
B13: IL-18 variant G3Y, E6N, N91Y, R104S (ligand)
chain: B1 chain with P3Y, R6N, W54D, Q55S, S63T, T91Y, H104S
B14: IL-18 variant G3Q, E6G, D54N, S55H, T63V, N91M, R104T (ligand)
chain: B1 chain with P3Q, R6G, W54N, Q55H, S63V, T91M, H104T
B15: IL-18 variant G3Q, E6N (ligand)
chain: B1 chain with P3Q, R6N, W54D, Q55S, S63T, T91N, H104R
B16: IL-18 variant G3E, E6G, N91M, R104A (ligand)
chain: B1 chain with P3E, R6G, W54D, Q55S, S63T, T91M, H104A

Each binder was assayed against T1, IL-18 receptors on HEK-Blue IL-18 … (assay: cell-based or functional assay).

Row | Binder | Activity, No BP, DF-100000 | Activity, No BP, DF-500000 | Activity, No BP, DF-2500000
1 | B1 | 0.74 | 0.25 | 0.09
2 | B2 | 0.56 | 0.18 | 0.08
3 | B3 | 1.92 | 1.92 | 1.4
4 | B4 | 0.7 | 0.24 | 0.15
5 | B5 | 0.68 | 0.23 | 0.1
6 | B6 | 1.37 | 0.75 | 0.28
7 | B7 | 1.94 | 1.84 | 1.61
8 | B8 | 1.89 | 1.9 | 1.64
9 | B9 | 1.95 | 1.77 | 1.26
10 | B10 | 2.1 | 1.96 | 1.34
11 | B11 | 0.46 | 0.14 | 0.14
12 | B12 | 2.12 | 2.01 | 1.85
13 | B13 | 1.87 | 1.79 | 1.54
14 | B14 | 1.99 | 1.82 | 1.01
15 | B15 | 1.95 | 1.93 | 1.85
16 | B16 | 2.05 | 2 | 1.54

These binders were tested against T2, IL-18 binding protein (IL-18BP) (assay: cell-based or functional assay).

Row | Binder | Activity, +100 nM BP, DF-1000002 | Activity, +100 nM BP, DF-5000003 | Activity, +100 nM BP, DF-25000004 | Ratio (-BP/+BP), DF-1000005 | Ratio (-BP/+BP), DF-5000006 | Ratio (-BP/+BP), DF-25000007
17 | B1 | 0.89 | 0.26 | 0.12 | 0.83 | 0.96 | 0.78
18 | B2 | 0.6 | 0.19 | 0.09 | 0.94 | 0.96 | 0.91
19 | B3 | 1.55 | 1.15 | 0.45 | 1.24 | 1.67 | 3.14
20 | B4 | 0.78 | 0.26 | 0.12 | 0.9 | 0.95 | 1.22
21 | B5 | 0.62 | 0.23 | 0.12 | 1.09 | 0.99 | 0.84
22 | B6 | 0.9 | 0.42 | 0.14 | 1.52 | 1.76 | 1.97
23 | B7 | 1.15 | 0.46 | 0.15 | 1.68 | 4.03 | 10.7
24 | B8 | 1.8 | 1.43 | 0.71 | 1.05 | 1.33 | 2.31
25 | B9 | 1.64 | 0.85 | 0.32 | 1.19 | 2.08 | 3.88
26 | B10 | 2.05 | 1.45 | 0.74 | 1.02 | 1.35 | 1.81
27 | B11 | 0.46 | 0.15 | 0.14 | 0.99 | 0.93 | 1.02
28 | B12 | 1.81 | 1.15 | 0.46 | 1.17 | 1.75 | 4
29 | B13 | 1.78 | 1.2 | 0.6 | 1.05 | 1.5 | 2.59
30 | B14 | 1.83 | 1.38 | 0.7 | 1.09 | 1.32 | 1.44
31 | B15 | 1.88 | 1.52 | 0.84 | 1.04 | 1.27 | 2.2
32 | B16 | 1.93 | 1.41 | 0.53 | 1.06 | 1.41 | 2.92
